{"source": "paper PMC5262380", "about": "“Structural insights into the mechanism of the DEAH-box RNA helicase Prp43”", "binders": {"B1": {"name": "5'-6FAM-U16-RNA (ssRNA)", "RNA": "UUUUUUUUUUUUUUUU"}}, "key": {"ctPrp43": {"target": "ctPrp43 (Chaetomium thermophilum? (printed C. …, UniProt G0RY84 1-764))", "sequence (G0RY84 entry or part of it)": "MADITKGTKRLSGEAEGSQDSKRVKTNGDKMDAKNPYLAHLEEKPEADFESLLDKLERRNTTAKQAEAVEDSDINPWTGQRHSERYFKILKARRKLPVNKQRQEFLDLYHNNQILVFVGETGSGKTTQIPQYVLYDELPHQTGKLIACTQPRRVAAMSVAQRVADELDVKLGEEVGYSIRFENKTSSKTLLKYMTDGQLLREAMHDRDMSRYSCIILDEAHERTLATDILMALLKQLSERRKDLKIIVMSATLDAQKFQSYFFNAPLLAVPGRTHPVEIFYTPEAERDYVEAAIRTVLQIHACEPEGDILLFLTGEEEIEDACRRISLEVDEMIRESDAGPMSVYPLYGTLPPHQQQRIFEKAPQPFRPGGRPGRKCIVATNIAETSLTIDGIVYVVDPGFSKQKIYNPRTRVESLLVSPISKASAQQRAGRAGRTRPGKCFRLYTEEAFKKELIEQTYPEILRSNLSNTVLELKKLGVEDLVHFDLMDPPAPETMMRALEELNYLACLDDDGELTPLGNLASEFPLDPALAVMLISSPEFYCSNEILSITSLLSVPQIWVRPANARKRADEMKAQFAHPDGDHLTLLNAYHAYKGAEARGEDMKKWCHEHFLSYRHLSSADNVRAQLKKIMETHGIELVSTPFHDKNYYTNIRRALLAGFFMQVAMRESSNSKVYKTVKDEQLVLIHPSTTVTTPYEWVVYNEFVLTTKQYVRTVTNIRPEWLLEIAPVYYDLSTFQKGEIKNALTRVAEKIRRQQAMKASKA", "assay": "fluorescence anisotropy; AMPPNP (100-fold excess), 3 mM MgCl2; Fluorescence anisotropy: 25 mM Tris pH 7.5, 150 mM KCl, 3 mM MgCl2, 25 C, 0.1 uM RNA, 0.01-50 uM protein, 100-fold excess AMPPNP", "conditions": "protein: recombinant; tags: GST-tag removed; label: 5' 6-carboxyfluorescein; single strand"}, "[1]": {"target": "ctPrp43-HT (Hook-Turn mutant) (Chaetomium thermophilum? (printed C. …, UniProt G0RY84 1-764, R180G;F181G))", "sequence (G0RY84 entry or part of it R180G;F181G | mutant)": "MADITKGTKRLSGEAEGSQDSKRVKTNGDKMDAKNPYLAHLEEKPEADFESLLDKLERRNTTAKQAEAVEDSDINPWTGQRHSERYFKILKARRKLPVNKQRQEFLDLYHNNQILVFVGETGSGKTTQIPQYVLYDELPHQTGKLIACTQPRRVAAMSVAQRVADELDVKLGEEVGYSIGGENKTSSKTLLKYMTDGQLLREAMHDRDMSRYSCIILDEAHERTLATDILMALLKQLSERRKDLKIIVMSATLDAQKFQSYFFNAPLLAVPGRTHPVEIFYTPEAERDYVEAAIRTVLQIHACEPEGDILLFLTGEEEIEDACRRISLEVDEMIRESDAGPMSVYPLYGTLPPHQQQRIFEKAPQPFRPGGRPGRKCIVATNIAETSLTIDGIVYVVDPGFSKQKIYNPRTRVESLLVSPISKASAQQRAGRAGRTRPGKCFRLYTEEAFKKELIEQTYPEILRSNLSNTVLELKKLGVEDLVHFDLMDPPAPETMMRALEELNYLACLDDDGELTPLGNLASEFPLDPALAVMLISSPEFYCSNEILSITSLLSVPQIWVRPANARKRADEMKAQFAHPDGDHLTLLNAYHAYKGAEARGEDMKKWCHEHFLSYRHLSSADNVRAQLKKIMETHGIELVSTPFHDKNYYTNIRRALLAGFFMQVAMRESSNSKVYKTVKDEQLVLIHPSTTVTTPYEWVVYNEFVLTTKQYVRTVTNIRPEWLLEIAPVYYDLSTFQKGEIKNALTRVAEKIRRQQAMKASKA", "assay": "fluorescence anisotropy; AMPPNP (100-fold excess), 3 mM MgCl2; Fluorescence anisotropy: 25 mM Tris pH 7.5, 150 mM KCl, 3 mM MgCl2, 25 C, 0.1 uM RNA, 0.01-50 uM protein, 100-fold excess AMPPNP", "conditions": "protein: recombinant; tags: GST-tag removed; label: 5' 6-carboxyfluorescein; single strand"}}}
{"binder": "B1", "values": [{"measurement": "Kd", "setting": "ctPrp43", "result": "4.98 ± 0.57", "unit": "µM"}, {"measurement": "Kd", "setting": "[1]", "result": "0.84 ± 0.05", "unit": "µM"}]}
